The results in this text go back to the supplement of paper PMC5998384.

Data set [1] relates to HeLa Kyoto. Nature of the data set: solubility in G1/S (NP-40 vs SDS abundance) (log2 ratio); higher = more soluble. The settings on record: cell cycle stage: G1/S.
Data set [2] relates to HeLa Kyoto. Nature of the data set: melting temperature (median over replicates), in situ; higher = more thermally stable.
Data set [3] has as its system HeLa Kyoto. Nature of the data set: thermal stability score vs G1/S (z-score of summed log2 fold changes over temperatures); higher = more thermally stable than in G1/S.
The subject of data set [4] is HeLa Kyoto. The data set can be described thus: solubility change mitosis vs G1/S (difference of NP-40 vs SDS log2 ratios) (log2 ratio difference); higher = more soluble in mitosis.
Where [5] appears, read: cell cycle stage: early G1 (4.5 h after nocodazole release).
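Wherever melting temperature (median over replicates), in situ is given: HeLa Kyoto cells synchronized by double thymidine or nocodazole block, proteins quantified by TMT10plex mass spectrometry, three independent biological replicates.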
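Wherever solubility change mitosis vs G1/S (difference of NP-40 vs SDS log2 ratios) is given: synchronized HeLa Kyoto cells (double thymidine block for G1/S, nocodazole release for mitosis), protein amounts in NP-40 versus SDS lysates quantified by mass spectrometry, three biological replicates.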
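Wherever solubility in G1/S (NP-40 vs SDS abundance) is given: HeLa Kyoto cells arrested at G1/S by double thymidine block, proteins quantified by TMT10plex mass spectrometry in mild NP-40 versus SDS extracts, three biological replicates.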
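Wherever thermal stability score vs G1/S (z-score of summed log2 fold changes over temperatures) is given: synchronized HeLa Kyoto cells, proteins quantified by TMT10plex mass spectrometry, three biological replicates, mitosis taken 0.5 h after nocodazole release, G1/S directly after double thymidine block.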

Chain of TANC1 (chain, as listed by the source): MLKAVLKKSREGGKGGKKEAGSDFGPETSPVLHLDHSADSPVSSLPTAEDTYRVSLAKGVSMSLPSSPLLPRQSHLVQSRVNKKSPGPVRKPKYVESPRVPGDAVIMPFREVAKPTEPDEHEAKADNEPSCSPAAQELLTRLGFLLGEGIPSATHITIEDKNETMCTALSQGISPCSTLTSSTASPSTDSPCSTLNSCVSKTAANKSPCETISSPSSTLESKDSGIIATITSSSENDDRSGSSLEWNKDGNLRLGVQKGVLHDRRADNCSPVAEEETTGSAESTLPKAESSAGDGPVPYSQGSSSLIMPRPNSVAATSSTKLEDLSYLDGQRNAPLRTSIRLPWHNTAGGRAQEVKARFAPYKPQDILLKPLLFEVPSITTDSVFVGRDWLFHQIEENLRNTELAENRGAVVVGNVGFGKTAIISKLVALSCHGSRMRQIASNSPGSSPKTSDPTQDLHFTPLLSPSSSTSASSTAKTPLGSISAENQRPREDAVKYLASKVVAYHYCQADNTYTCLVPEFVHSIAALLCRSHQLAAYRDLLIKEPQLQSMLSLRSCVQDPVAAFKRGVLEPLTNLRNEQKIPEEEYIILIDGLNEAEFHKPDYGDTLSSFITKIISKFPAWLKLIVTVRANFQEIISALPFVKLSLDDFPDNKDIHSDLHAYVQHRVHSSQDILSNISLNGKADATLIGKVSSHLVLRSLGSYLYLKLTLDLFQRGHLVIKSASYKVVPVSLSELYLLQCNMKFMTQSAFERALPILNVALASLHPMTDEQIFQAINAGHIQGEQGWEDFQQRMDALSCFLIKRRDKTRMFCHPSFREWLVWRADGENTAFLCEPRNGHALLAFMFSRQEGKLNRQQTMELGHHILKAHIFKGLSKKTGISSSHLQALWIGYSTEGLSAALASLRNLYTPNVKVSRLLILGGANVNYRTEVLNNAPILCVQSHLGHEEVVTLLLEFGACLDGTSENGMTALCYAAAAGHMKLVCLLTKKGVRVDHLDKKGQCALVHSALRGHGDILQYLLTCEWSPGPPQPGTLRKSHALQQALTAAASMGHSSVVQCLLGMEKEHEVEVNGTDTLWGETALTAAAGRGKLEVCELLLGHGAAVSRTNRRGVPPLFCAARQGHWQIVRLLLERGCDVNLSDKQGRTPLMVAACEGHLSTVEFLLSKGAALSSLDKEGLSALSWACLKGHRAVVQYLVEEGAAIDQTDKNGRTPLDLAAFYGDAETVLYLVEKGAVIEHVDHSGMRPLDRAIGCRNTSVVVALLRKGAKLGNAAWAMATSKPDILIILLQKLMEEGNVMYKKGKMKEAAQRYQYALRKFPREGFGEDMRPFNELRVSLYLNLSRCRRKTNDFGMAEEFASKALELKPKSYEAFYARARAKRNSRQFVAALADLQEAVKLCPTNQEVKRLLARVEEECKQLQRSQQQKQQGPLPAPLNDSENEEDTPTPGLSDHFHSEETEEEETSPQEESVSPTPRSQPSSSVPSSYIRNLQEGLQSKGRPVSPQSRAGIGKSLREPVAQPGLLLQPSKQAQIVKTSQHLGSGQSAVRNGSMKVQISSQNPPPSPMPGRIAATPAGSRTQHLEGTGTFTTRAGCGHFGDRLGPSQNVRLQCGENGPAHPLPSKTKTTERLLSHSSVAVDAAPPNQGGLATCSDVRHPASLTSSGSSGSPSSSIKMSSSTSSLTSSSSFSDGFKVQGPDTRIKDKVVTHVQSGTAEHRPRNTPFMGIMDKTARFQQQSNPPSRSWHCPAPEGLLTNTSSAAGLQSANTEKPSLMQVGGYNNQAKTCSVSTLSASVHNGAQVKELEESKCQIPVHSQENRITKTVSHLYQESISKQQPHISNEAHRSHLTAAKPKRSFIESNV

Turning to “MDSDDEMVEEAVEGHLDDDGLPHGFCTVTYSSTDRFEGNFVHGEKNGRGKFFFFDGSTLEGYYVDDALQGQGVYTYEDGGVLQGTYVDGELNGPAQEYDTDGRLIFKGQYKDNIRHGVCWIYYPDGGSLVGEVNEDGEMTGEKIAYVYPDERTALYGKFIDGEMIEGKLATLMSTEEGRPHFELMPGNSVYHFDKSTSSCISTNALLPDPYESERVYVAESLISSAGEGLFSKVAVGPNTVMSFYNGVRITHQEVDSRDWALNGNTLSLDEETVIDVPEPYNHVSKYCASLGHKANHSFTPNCIYDMFVHPRFGPIKCIRTLRAVEADEELTVAYGYDHSPPGKSGPEAPEWYQVELKAFQATQQK [SETD7]”, the “solubility in G1/S (log2)” value with HeLa Kyoto [1] was -0.127. The melting temperature in the data set with HeLa Kyoto [2] (cell cycle stage: G1/S) stood at 48.7 °C; in the data set with HeLa Kyoto [2] (cell cycle stage: mitosis), 50.5 °C. The values for the thermal stability score in the data set on HeLa Kyoto [3] (setting [5]) and in the data set on HeLa Kyoto [3] (cell cycle stage: mitosis) were 1.42 and 2.54, respectively. Besides, the “solubility change mitosis (log2)” value with HeLa Kyoto [4] is -0.119.
On to “MSENSSDSDSSCGWTVISHEGSDIEMLNSVTPTDSCEPAPECSSLEQEELQALQIEQGESSQNGTVLMEETAYPALEETSSTIEAEEQKIPEDSIYIGTASDDSDIVTLEPPKLEEIGNQEVVIVEEAQSSEDFNMGSSSSSQYTFCQPETVFSSQPSDDESSSDETSNQPSPAFRRRRARKKTVSASESEDRLVAEQETEPSKELSKRQFSSGLNKCVILALVIAISMGFGHFYGTIQIQKRQQLVRKIHEDELNDMKDYLSQCQQEQESFIDYKSLKENLARCWTLTEAEKMSFETQKTNLATENQYLRVSLEKEEKALSSLQEELNKLREQIRILEDKGTSTELVKENQKLKQHLEEEKQKKHSFLSQRETLLTEAKMLKRELERERLVTTALRGELQQLSGSQLHGKSDSPNVYTEKKEIAILRERLTELERKLTFEQQRSDLWERLYVEAKDQNGKQGTDGKKKGGRGSHRAKNKSKETFLGSVKETFDAMKNSTKEFVRHHKEKIKQAKEAVKENLKKFSDSVKSTFRHFKDTTKNIFDEKGNKRFGATKEAAEKPRTVFSDYLHPQYKAPTENHHNRGPTMQNDGRKEKPVHFKEFRKNTNSKKCSPGHDCRENSHSFRKACSGVFDCAQQESMSLFNTVVNPIRMDEFRQIIQRYMLKELDTFCHWNELDQFINKFFLNGVFIHDQKLFTDFVNDVKDYLRNMKEYEVDNDGVFEKLDEYIYRHFFGHTFSPPYGPRSVYIKPCHYSSL [CCPG1]”, for which, in the data set with HeLa Kyoto [1], the “solubility in G1/S (log2)” value was -0.321. Moreover, the melting temperature in the data set with HeLa Kyoto [2] (cell cycle stage: G1/S) and with HeLa Kyoto [2] (cell cycle stage: mitosis) was 53.6 °C throughout. In addition, the thermal stability score was 1.39 in the data set on HeLa Kyoto [3] (setting [5]) and 2.71 with HeLa Kyoto [3] (cell cycle stage: mitosis). Further, the “solubility change mitosis (log2)” value in the data set with HeLa Kyoto [4] is -0.0492.
Regarding “MSAPLDAALHALQEEQARLKMRLWDLQQLRKELGDSPKDKVPFSVPKIPLVFRGHTQQDPEVPKSLVSNLRIHCPLLAGSALITFDDPKVAEQVLQQKEHTINMEECRLRVQVQPLELPMVTTIQMSSQLSGRRVLVTGFPASLRLSEEELLDKLEIFFGKTRNGGGDVDVRELLPGSVMLGFARDGVAQRLCQIGQFTVPLGGQQVPLRVSPYVNGEIQKAEIRSQPVPRSVLVLNIPDILDGPELHDVLEIHFQKPTRGGGEVEALTVVPQGQQGLAVFTSESG [IFI35]”, the “solubility in G1/S (log2)” value in the data set with HeLa Kyoto [1] was determined as 0.654. Further, the melting temperature was determined as 54.6 °C in the data set with HeLa Kyoto [2] (cell cycle stage: G1/S) and 55.2 °C in the data set with HeLa Kyoto [2] (cell cycle stage: mitosis). Further, the values for the thermal stability score in the data set with HeLa Kyoto [3] (setting [5]) and with HeLa Kyoto [3] (cell cycle stage: mitosis) were -1.43 and -2.41, respectively. Moreover, the “solubility change mitosis (log2)” value with HeLa Kyoto [4] is -0.0643.
Regarding TANC1, the “solubility in G1/S (log2)” value with HeLa Kyoto [1] was -0.0445. In addition, the melting temperature with HeLa Kyoto [2] (cell cycle stage: G1/S) amounted to 50.1 °C; in the data set with HeLa Kyoto [2] (cell cycle stage: mitosis), 50.7 °C. Also, the thermal stability score in the data set on HeLa Kyoto [3] (setting [5]) was -0.0485; in the data set with HeLa Kyoto [3] (cell cycle stage: mitosis), 0.875. Further, in the data set with HeLa Kyoto [4], the “solubility change mitosis (log2)” value was -0.166.
As for “MSSGIHVALVTGGNKGIGLAIVRDLCRLFSGDVVLTARDVTRGQAAVQQLQAEGLSPRFHQLDIDDLQSIRALRDFLRKEYGGLDVLVNNAGIAFKVADPTPFHIQAEVTMKTNFFGTRDVCTELLPLIKPQGRVVNVSSIMSVRALKSCSPELQQKFRSETITEEELVGLMNKFVEDTKKGVHQKEGWPSSAYGVTKIGVTVLSRIHARKLSEQRKGDKILLNACCPGWVRTDMAGPKATKSPEEGAETPVYLALLPPDAEGPHGQFVSEKRVEQW [CBR1]”, the “solubility in G1/S (log2)” value in the data set on HeLa Kyoto [1] worked out at 0.626. The values for the melting temperature in the data set on HeLa Kyoto [2] (cell cycle stage: G1/S) and in the data set on HeLa Kyoto [2] (cell cycle stage: mitosis) were 53.2 °C and 53 °C, respectively. In addition, the thermal stability score was -1.36 in the data set with HeLa Kyoto [3] (setting [5]) and -0.874 with HeLa Kyoto [3] (cell cycle stage: mitosis). For the same substance, the “solubility change mitosis (log2)” value with HeLa Kyoto [4] is -0.0843.
Turning to “MMDIYVCLKRPSWMVDNKRMRTASNFQWLLSTFILLYLMNQVNSQKKGAPHDLKCVTNNLQVWNCSWKAPSGTGRGTDYEVCIENRSRSCYQLEKTSIKIPALSHGDYEITINSLHDFGSSTSKFTLNEQNVSLIPDTPEILNLSADFSTSTLYLKWNDRGSVFPHRSNVIWEIKVLRKESMELVKLVTHNTTLNGKDTLHHWSWASDMPLECAIHFVEIRCYIDNLHFSGLEEWSDWSPVKNISWIPDSQTKVFPQDKVILVGSDITFCCVSQEKVLSALIGHTNCPLIHLDGENVAIKIRNISVSASSGTNVVFTTEDNIFGTVIFAGYPPDTPQQLNCETHDLKEIICSWNPGRVTALVGPRATSYTLVESFSGKYVRLKRAEAPTNESYQLLFQMLPNQEIYNFTLNAHNPLGRSQSTILVNITEKVYPHTPTSFKVKDINSTAVKLSWHLPGNFAKINFLCEIEIKKSNSVQEQRNVTIKGVENSSYLVALDKLNPYTLYTFRIRCSTETFWKWSKWSNKKQHLTTEASPSKGPDTWREWSSDGKNLIIYWKPLPINEANGKILSYNVSCSSDEETQSLSEIPDPQHKAEIRLDKNDYIISVVAKNSVGSSPPSKIASMEIPNDDLKIEQVVGMGKGILLTWHYDPNMTCDYVIKWCNSSRSEPCLMDWRKVPSNSTETVIESDEFRPGIRYNFFLYGCRNQGYQLLRSMIGYIEELAPIVAPNFTVEDTSADSILVKWEDIPVEELRGFLRGYLFYFGKGERDTSKMRVLESGRSDIKVKNITDISQKTLRIADLQGKTSYHLVLRAYTDGGVGPEKSMYVVTKENSVGLIIAILIPVAVAVIVGVVTSILCYRKREWIKETFYPDIPNPENCKALQFQKSVCEGSSALKTLEMNPCTPNNVEVLETRSAFPKIEDTEIISPVAERPEDRSDAEPENHVVVSYCPPIIEEEIPNPAADEAGGTAQVIYIDVQSMYQPQAKPEEEQENDPVGGAGYKPQMHLPINSTVEDIAAEEDLDKTAGYRPQANVNTWNLVSPDSPRSIDSNSEIVSFGSPCSINSRQFLIPPKDEDSPKSNGGGWSFTNFFQNKPND [LIFR]”, the “solubility in G1/S (log2)” value in the data set on HeLa Kyoto [1] was determined as 0.206. The results for the melting temperature in the data set with HeLa Kyoto [2] (cell cycle stage: G1/S) and in the data set with HeLa Kyoto [2] (cell cycle stage: mitosis) were 54.8 °C and 55.1 °C, respectively. Besides, the results for the thermal stability score in the data set with HeLa Kyoto [3] (setting [5]) and in the data set with HeLa Kyoto [3] (cell cycle stage: mitosis) were -3.21 and -1.95, respectively. In addition, the “solubility change mitosis (log2)” value in the data set with HeLa Kyoto [4] is -0.094.
Regarding “MAKTYDYLFKLLLIGDSGVGKTCVLFRFSEDAFNSTFISTIGIDFKIRTIELDGKRIKLQIWDTAGQERFRTITTAYYRGAMGIMLVYDITNEKSFDNIRNWIRNIEEHASADVEKMILGNKCDVNDKRQVSKERGEKLALDYGIKFMETSAKANINVENAFFTLARDIKAKMDKKLEGNSPQGSNQGVKITPDQQKRSSFFRCVLL [RAB8A]”, in the data set with HeLa Kyoto [1], the “solubility in G1/S (log2)” value was -0.0996. Also, the melting temperature in the data set on HeLa Kyoto [2] (cell cycle stage: G1/S) stood at 56.7 °C; in the data set with HeLa Kyoto [2] (cell cycle stage: mitosis) it was 55.4 °C. Besides, the figures for the thermal stability score with HeLa Kyoto [3] (setting [5]) and in the data set with HeLa Kyoto [3] (cell cycle stage: mitosis) were 2.59 and 1.39, respectively. In addition, the “solubility change mitosis (log2)” value in the data set with HeLa Kyoto [4] was -0.103.
For the substance “MADEDLIFRLEGVDGGQSPRAGHDGDSDGDSDDEEGYFICPITDDPSSNQNVNSKVNKYYSNLTKSERYSSSGSPANSFHFKEAWKHAIQKAKHMPDPWAEFHLEDIATERATRHRYNAVTGEWLDDEVLIKMASQPFGRGAMRECFRTKKLSNFLHAQQWKGASNYVAKRYIEPVDRDVYFEDVRLQMEAKLWGEEYNRHKPPKQVDIMQMCIIELKDRPGKPLFHLEHYIEGKYIKYNSNSGFVRDDNIRLTPQAFSHFTFERSGHQLIVVDIQGVGDLYTDPQIHTETGTDFGDGNLGVRGMALFFYSHACNRICESMGLAPFDLSPRERDAVNQNTKLLQSAKTILRGTEEKCGSPQVRTLSGSRPPLLRPLSENSGDENMSDVTFDSLPSSPSSATPHSQKLDHLHWPVFSDLDNMASRDHDHLDNHRESENSGDSGYPSEKRGELDDPEPREHGHSYSNRKYESDEDSLGSSGRVCVEKWNLLNSSRLHLPRASAVALEVQRLNALDLEKKIGKSILGKVHLAMVRYHEGGRFCEKGEEWDQESAVFHLEHAANLGELEAIVGLGLMYSQLPHHILADVSLKETEENKTKGFDYLLKAAEAGDRQSMILVARAFDSGQNLSPDRCQDWLEALHWYNTALEMTDCDEGGEYDGMQDEPRYMMLAREAEMLFTGGYGLEKDPQRSGDLYTQAAEAAMEAMKGRLANQYYQKAEEAWAQMEE [EEF2K]”, in the data set with HeLa Kyoto [1], the “solubility in G1/S (log2)” value came to 0.0328. For the same substance, the melting temperature in the data set on HeLa Kyoto [2] (cell cycle stage: G1/S) is 47.7 °C; in the data set with HeLa Kyoto [2] (cell cycle stage: mitosis), 48.4 °C. The thermal stability score in the data set with HeLa Kyoto [3] (setting [5]) turned out to be 0.84; in the data set on HeLa Kyoto [3] (cell cycle stage: mitosis), 1.21. For the same substance, the “solubility change mitosis (log2)” value with HeLa Kyoto [4] was -0.158.
